Key:
[1] = target: Human recombinant hexaHis-tagged SIRT2 containing residues 50-356 (human) (UniProt Q8IXJ6); experiment: ELISA; plate coated with 5 μg/ml SIRT2 overnight in PBS; TPPP/p25 or tubulin added in serial dilution, detected by TPPP/p25 or tubulin antibody; apparent Kd from a single binding site hyperbola; MZ242, MZ25 and SH1 up to 30 μM did not influence the binding of 125 nM TPPP/p25 significantly
[2] = target: Tubulin Polymerization Promoting Protein (TPPP/p25) (human) (UniProt O94811); experiment: ELISA; plate coated with 5 ug/ml TPPP/p25 overnight in PBS; tubulin added at a serial dilution; bound tubulin detected by monoclonal tubulin antibody and HRP-conjugated secondary antibody; Kd from the saturation curve by a single binding site hyperbola model; apparent
UniProt O94811, sequence (O94811 whole entry): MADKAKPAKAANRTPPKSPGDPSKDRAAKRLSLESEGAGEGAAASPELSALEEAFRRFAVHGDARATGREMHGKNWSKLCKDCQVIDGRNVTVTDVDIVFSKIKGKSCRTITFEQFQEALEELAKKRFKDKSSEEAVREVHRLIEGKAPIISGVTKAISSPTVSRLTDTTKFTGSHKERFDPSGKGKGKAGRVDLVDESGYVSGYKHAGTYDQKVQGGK

UniProt Q8IXJ6, sequence (Q8IXJ6 50-356): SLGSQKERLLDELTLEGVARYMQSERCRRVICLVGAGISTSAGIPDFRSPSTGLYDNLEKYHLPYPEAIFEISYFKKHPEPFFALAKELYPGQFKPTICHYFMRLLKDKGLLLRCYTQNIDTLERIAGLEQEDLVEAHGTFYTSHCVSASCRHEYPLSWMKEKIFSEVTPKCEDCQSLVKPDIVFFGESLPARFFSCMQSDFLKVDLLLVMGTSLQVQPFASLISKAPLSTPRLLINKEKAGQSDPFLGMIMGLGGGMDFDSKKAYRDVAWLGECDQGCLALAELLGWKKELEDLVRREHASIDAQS

Substance	Kd [1] [nM]	Kd [2] [nM]
Tubulin prepared from bovine brain (from UniProt Q6B856 1-445) (complex)	> 2000	
tubulin (from UniProt Q6B856 1-445) (complex)		10
